Laboratory results as given in patent US20230295308A1, “ANTAGONISTIC BIPARATOPIC ANTIBODIES THAT SPECIFICALLY BIND FIBROBLAST GROWTH FACTOR RECEPTOR 2 AND METHODS OF USING SAME” (The Broad Institute, Inc., priority 2020, published 2023).
“Also recorded” adds a separate entry of the source. Blank lines part the entries; values can stand above or below the molecule they belong to.

Columns and labels:
[1] = system: NIH3T3 cells transformed with FGFR2-BICC1, FGFR2-AHCYL1, and FGFR2-PHGDH fusions; test: growth of NIH3T3 cells transformed with FGFR2 fusions (FIG. 5); type: cell-based
Description: (§1) NIH3T3 cells transformed with FGFR2-BICC1, FGFR2-AHCYL1, and FGFR2-PHGDH fusions were also sensitive to BGJ398 treatment (FIG. 5).

[2] = system: FGFR2 fusion-positive ICC; conditions: phase II trial; cited from earlier work
[3] = system: FGFR2-fusion transformed BaF3 cells; test: viability assay of BaF3 cells expressing FGFR2 fusions (FIG. 2); type: cell-based
Description: A table showing IC50 (μM) is also provided.
as §1

[4] = system: BaF3 cells overexpressing FGFR2-PHGDH fusion; test: BaF3 FGFR2-PHGDH cell survival, CellTiter-Glo (FIGS. 18A-18D); type: cell-based; conditions: no IL3, no FGF, 5 days, 0.013-1 μM
Description: FIGS. 18A-18D present graphs showing the ability of biparatopic antibodies to impact FGFR2-fusion driven cell growth in BaF3 cells molecularly engineered to overexpress FGFR2-PHGDH fusion. […] These biparatopic antibodies were also more efficient at inhibiting growth of BaF3 cells overexpressing the FGFR2-PHGDH fusion compared to their parental antibodies. The nomenclature of the biparatopic antibodies is based on the designations and descriptions of the parental antibodies presented in FIG. 7B.
(§2) The impact of biparatopic antibodies on FGFR2-fusion driven cell growth was assessed in a cell-based assay using biparatopic antibodies that bind to the ECD of FGFR2 and generated as described supra (Example 4). As described herein, the biparatopic antibodies were added to cultures of cells (e.g., NIH3T3 cells or BaF3 cells) molecularly engineered to overexpress FGFR2 fusion.
In particular, for assays using BaF3 cells (FIGS. 18A-18D), BaF3 cells overexpressing empty vector control or FGFR2-PHGDH fusion construct were plated in the absence of IL3 and FGF in 384 black well plates at a concentration of 750 cells/well overnight. […] The cell survival was measured using CellTiter-Glo at 5 days post treatment and the IC50 curves were generated using non-linear fit in PRISM 9 software. […]

[5] = system: NIH3T3 cells overexpressing FGFR2-BICC1 fusion; test: NIH3T3 FGFR2-BICC1 cell confluency, Incucyte (FIGS. 19A-19E); type: cell-based; conditions: 60 hours, 0.013-1 μM
Protocol: FIGS. 19A-19E present graphs showing the ability of biparatopic antibodies to impact FGFR2-fusion driven cell growth in NIH3T3 cells molecularly engineered to overexpress FGFR2-BICC1 fusion. […] The nomenclature of the biparatopic antibodies is based on the designations and descriptions of the parental antibodies presented in FIG. 7B.
as §2
For assays using NIH3T3 cells, (FIGS. 19A-19E), NIH3T3 cells overexpressing a FGFR2-BICC1 fusion construct were plated in 384 black well plates at a concentration of 1000 cells/well overnight. 6 parental antibodies and 13 biparatopic antibodies were added to each well in duplicates at various concentrations ranging from 1 μM to 0.013 μM (1 μM, 0.833 μM, 0.600 μM, 0.450 μM, 0.316 μM, 0.233 μM, 0.166 μM, 0.125 μM, 0.091 μM, 0.066 μM, 0.048 μM, 0.035 μM, 0.025 μM, 0.018 μM, and 0.013 μM). The cell confluency was measured using Incucyte at 60 hours post treatment, and the IC50 curves were generated using non-linear fit in PRISM 9 software.

[6] = molecular target: FGFR2b alpha IIIb antigen (UniProt P21802); test: SPR (Biacore), antibody immobilized, FGFR2b alpha IIIb in flow
[7] = molecular target: FGFR2b alpha IIIb antigen (UniProt P21802); test: SPR (Biacore), KD matrix by the two arms; unit M from FIG. 17B and paragraph 180; FIG. 17B prints 9.1E-10 for the same antibody

Molecule: CCN1CCN(c2ccc(Nc3cc(N(C)C(=O)Nc4c(Cl)c(OC)cc(OC)c4Cl)ncn3)cc2)CC1 [NVP-BGJ398]
sensitivity of NIH3T3 cells transformed with FGFR2 fusions [1]: sensitive
efficacy in patients with FGFR2 fusion-positive ICC [2]: encouraging efficacy
sensitivity of FGFR2-fusion transformed BaF3 cells (viability) [3]: sensitive; also recorded: showed sensitivity

Binding Stoichiometry [6]: 1.3
Kd [6]: 910 pM
Kd [7]: 820 pM
B1: Biparatopic antibody B/N12 (bispecific antibody, V domains shown)
VH 1: EVQLLESGGGLVQPGGSLRLSCAASGFTFSSYAMSWVRQAPGKGLEWVSAISGSGTSTYYADSVKGRFTISRDNSKNTLYLQMNSLRAEDTAVYYCARVRYNWNHGDWFDPWGQGTLVTVSS
VL 1: QSVLTQPPSASGTPGQRVTISCSGSSSNIGNNYVSWYQQLPGTAPKLLIYENYNRPAGVPDRFSGSKSGTSASLAISGLRSEDEADYYCSSWDDSLNYWVFGGGTKLTVLG
VH 2: QVQLVQSGAEVKKPGESLKISCKGSGYSFTNYYIHWVRQMPGKGLEWMGAIYPDNSDTTYSPSFQGQVTISADKSISTAYLQWSSLKASDTAMYYCARGADIWGQGTLVTVSS
VL 2: DIQMTQSPSSLSASVGDRVTITCRASQDIDPYLSNWYQQKPGKAPKLLIYDASNLQSGVPSRFSGSGSGTDFTLTISSLQPEDFATYYCQQTTSHPYTFGQGTKVEIK
inhibition of growth of BaF3 cells overexpressing FGFR2-PHGDH compared to control cells overexpressing empty vector [4]: more efficient and potent; also recorded: more effective and potent
inhibition of growth of NIH3T3 cells overexpressing FGFR2-BICC1 compared to parental antibodies [5]: more efficient and potent; also recorded: more effective and potent
